Reference: PMC2975869

Biological target: HA-tagged M593A-PTH1R (UniProt Q03431)
Assay: radioligand binding

[125I]-PTH(1-34)NH2 (peptide)
Total Binding (TB), cells co-transfected with EBP50: 1290 | Total Binding (TB), cells co-transfected with pcDNA3: 1180
